The text below walks through data of article PMC7671685.

“And” between values parts separate entries of the source, which are not always exact repeats. Equal values may be shown once.

The experiment addresses proinsulin 2 (mouse (endogenous in MIN6)). Briefly: non-reducing SDS-PAGE of immunoprecipitates (disulfide-linked forms) + mass spectrometry of the excised band; MIN6 cells treated with 50 µM olanzapine; pulse-chase, immunoprecipitation with anti-insulin #8138, non-reducing SDS-PAGE and autoradiography; for mass spectrometry cells were lysed in 1% NP40 with 10 mM NEM and the HMP-1 band was excised.

In general, stoichiometry N refers to the number of molecules, sites or subunits per partner or assembly. As for proinsulin 2 (natural protein), the stoichiometry N was 2 and 3.
